{"source": "the supplement of paper PMC9170038", "key": {"[1]": {"test_system": "MS2 coat protein", "assay": "apparent KD of MS2 coat protein; higher = weaker reporter binding", "details": "Eterna round: R101", "description": "(§1)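 RNA-MaP: designed FMN/MS2 RNA switches (84 nt design region) are transcribed on-chip within common flanks and titrated with SNAP-549-labelled MS2 coat protein (about 1-3000 nM) in 100 mM Tris pH 7.5, 80 mM KCl, 4 mM MgCl2, without or with 200 uM FMN. Median apparent KD per design; activation ratio = KD,OFF / KD,ON.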"}, "[2]": {"test_system": "MS2 coat protein", "assay": "apparent KD of MS2 coat protein; designed switch direction (-1 OFF switch, 1 ON switch): -1; higher = weaker reporter binding", "details": "Eterna round: R98", "description": "as §1"}, "[3]": {"test_system": "MS2 coat protein", "assay": "apparent KD of MS2 coat protein; designed switch direction (-1 OFF switch, 1 ON switch): 1; higher = weaker reporter binding", "details": "Eterna round: R98", "description": "as §1"}}, "data": [{"sequence": "AAAGAUUUUUAAGGAUAUCAGUGGCAAAGCCACUGAGAAGGUGAGGAUCACCCACCUACGUGACCCUGGAAACAGGGUCACGAA [#SharedSequence - ExNG1-14] (puzzle (switch architecture): Exclusion NG 1)", "values": [{"measurement": "apparent KD of MS2 coat protein", "setting": "[1]; input ligand: FMN 200 uM", "result": 14.7, "unit": "nM"}, {"measurement": "apparent KD of MS2 coat protein", "setting": "[1]; input ligand: none", "result": 13.2, "unit": "nM"}]}, {"sequence": "AAAUAAAUUGAAGGAUAUGACCCUCGAGGUGACUAAAAGUCACCUCGAGGGUCAGAAGGUCGAGGAUCACCCGACCUAAAUAAA [#SharedSequence SLExNG1: 4-1] (puzzle (switch architecture): Small Loop Exclusion NG 1)", "values": [{"measurement": "apparent KD of MS2 coat protein", "setting": "[1]; input ligand: FMN 200 uM", "result": 8.19, "unit": "nM"}, {"measurement": "apparent KD of MS2 coat protein", "setting": "[1]; input ligand: none", "result": 7.16, "unit": "nM"}]}, {"sequence": "AAGAAGCUCACAGGAUAUCAGUAUAUGCUAUCUAGCGUAUUAAUGAACUGCUGAGAAGGGUGAGACAUGAGGAUCACCCAUGUA [Angeon] (puzzle (switch architecture): Small Loop Same State NG 1)", "values": [{"measurement": "apparent KD of MS2 coat protein", "setting": "[1]; input ligand: FMN 200 uM", "result": 54, "unit": "nM"}, {"measurement": "apparent KD of MS2 coat protein", "setting": "[1]; input ligand: none", "result": 120, "unit": "nM"}]}, {"sequence": "AAUAAACAAUAAAAGACUGGAGCAAACUUUUGAGGAUCACCCAGAAGGCGUCACCUAAUAGGUGACGAGGAUAUGGAGCUCCAG [#SharedSequence IExNG# - 4] (puzzle (switch architecture): Inverted Exclusion NG 3)", "values": [{"measurement": "apparent KD of MS2 coat protein", "setting": "[1]; input ligand: FMN 200 uM", "result": 135, "unit": "nM"}, {"measurement": "apparent KD of MS2 coat protein", "setting": "[1]; input ligand: none", "result": 17.3, "unit": "nM"}]}, {"sequence": "AAUAAUUCUCAAGGAUAUCAGUGGCAAAGCCACUGAGAAGGUGAGGAUCACCCACCUACGUGACGCUGGAAACAGCGUCACGAA [#SharedSequence ExNG1 - 34] (puzzle (switch architecture): Exclusion NG 1)", "values": [{"measurement": "apparent KD of MS2 coat protein", "setting": "[1]; input ligand: FMN 200 uM", "result": 164, "unit": "nM"}, {"measurement": "apparent KD of MS2 coat protein", "setting": "[1]; input ligand: none", "result": 30.5, "unit": "nM"}]}, {"sequence": "ACACGUCGUGAGAAGGAGGAUCACCCUUUCGAAAGAAAUAGCCACCGUGAAAACGGUGGCAAAUCCUAGGAUAUCACGACGUGA [#SharedSequence - IExNG2: 4] (puzzle (switch architecture): Inverted Exclusion NG 2)", "values": [{"measurement": "apparent KD of MS2 coat protein", "setting": "[1]; input ligand: FMN 200 uM", "result": 41.8, "unit": "nM"}, {"measurement": "apparent KD of MS2 coat protein", "setting": "[1]; input ligand: none", "result": 551, "unit": "nM"}]}, {"sequence": "ACAGGUCGUGAGAAGGAGAGUGGCACCGUCGAAAGACGGUGCAACUAGAAACCUAGAGGAUCACCCUAGGAUAUCACGACCUGA [#SharedSequence - IExNG2: 11] (puzzle (switch architecture): Inverted Exclusion NG 2)", "values": [{"measurement": "apparent KD of MS2 coat protein", "setting": "[1]; input ligand: FMN 200 uM", "result": 6.46, "unit": "nM"}, {"measurement": "apparent KD of MS2 coat protein", "setting": "[1]; input ligand: none", "result": 6.32, "unit": "nM"}]}, {"sequence": "AGAUGACAAAGUCAUCUCGCUCUGACAUGAGGAUCACCCAUGUAGGAUAUAUUACUCAAAGAGUAAUAGAAGGACAUGUUUCUG [Ex NG2 #64]", "values": [{"measurement": "apparent KD of MS2 coat protein", "setting": "[2]; input ligand: FMN 200 uM", "result": 65.5, "unit": "nM"}, {"measurement": "apparent KD of MS2 coat protein", "setting": "[2]; input ligand: none", "result": 36, "unit": "nM"}]}, {"sequence": "CACCUAAAUCCUAGAGGAUCACCCUAGGAUAUCACCGUCGAGGUGCCAUAAUGGCACCUCGACGGUGAGAAGGAGGGUAAAUAA [#SharedSequence - SLExNG3: 9] (puzzle (switch architecture): Small Loop Exclusion NG 3)", "values": [{"measurement": "apparent KD of MS2 coat protein", "setting": "[1]; input ligand: FMN 200 uM", "result": 6.41, "unit": "nM"}, {"measurement": "apparent KD of MS2 coat protein", "setting": "[1]; input ligand: none", "result": 5.82, "unit": "nM"}]}, {"sequence": "CAGAUAAAAGUGAGGUCGUCGACAUGAGGAUCACCCAUGUACGAGGAUAUGUAAUAUACGGUAUAGCAGAAGGCGUAUGGGUGU [Edrageer]", "values": [{"measurement": "apparent KD of MS2 coat protein", "setting": "[2]; input ligand: FMN 200 uM", "result": 120, "unit": "nM"}, {"measurement": "apparent KD of MS2 coat protein", "setting": "[2]; input ligand: none", "result": 30.5, "unit": "nM"}]}, {"sequence": "CUGAAGUCUGACCCUCGAAACAUGAGGAUCACCCAUGUAGUCAGAAGGCGAUUGUGAGCAGGAAUCGAGGAUAUGAACUAGUUU [EternaBot1300] (puzzle (switch architecture): Inverted Exclusion NG 3)", "values": [{"measurement": "apparent KD of MS2 coat protein", "setting": "[1]; input ligand: FMN 200 uM", "result": 9.99, "unit": "nM"}]}, {"sequence": "CUUACUUUGUAGAAGGGUGACAUGAGGAUCACCCAUGUGCGUGGCCUGAAAGACCAGGGUACGCCACAGGAUAUACAAAGUAAG [Esatatina] (puzzle (switch architecture): Inverted Same State NG 2)", "values": [{"measurement": "apparent KD of MS2 coat protein", "setting": "[1]; input ligand: FMN 200 uM", "result": 26.1, "unit": "nM"}, {"measurement": "apparent KD of MS2 coat protein", "setting": "[1]; input ligand: none", "result": 15.3, "unit": "nM"}]}, {"sequence": "CUUAGUUUGUAGAAGGGUGACAUGAGGAUCACCCAUGUGCGUAGCCUGAAAGACCAGGGUACGCCACAGGAUAUACAAAGUAAG [Onenisa] (puzzle (switch architecture): Inverted Same State NG 2)", "values": [{"measurement": "apparent KD of MS2 coat protein", "setting": "[1]; input ligand: FMN 200 uM", "result": 84.9, "unit": "nM"}, {"measurement": "apparent KD of MS2 coat protein", "setting": "[1]; input ligand: none", "result": 57.4, "unit": "nM"}]}, {"sequence": "GGCAGCCCUCAGAAGGGAGUGCGAUAAUCGCACUCAGGAUAUGAGGAUCACCCAUAUCAAGCUGCCACUGAGGCAAAGCCUCAG [#SharedSequence - IEx NG 1-1] (puzzle (switch architecture): Inverted Exclusion NG 1)", "values": [{"measurement": "apparent KD of MS2 coat protein", "setting": "[1]; input ligand: FMN 200 uM", "result": 57.4, "unit": "nM"}, {"measurement": "apparent KD of MS2 coat protein", "setting": "[1]; input ligand: none", "result": 12.1, "unit": "nM"}]}, {"sequence": "GGUACUCAAAGAGUACCAAUACGAACAUGAGGAUCACCCAUGUAGGAUAUGCUACUCAAAGAGUAGCAGAAGGACAUGUGCCUA [OmeiMod 7 - Jieux - Exclusion NG 3]", "values": [{"measurement": "apparent KD of MS2 coat protein", "setting": "[2]; input ligand: FMN 200 uM", "result": 422, "unit": "nM"}, {"measurement": "apparent KD of MS2 coat protein", "setting": "[2]; input ligand: none", "result": 38.7, "unit": "nM"}]}, {"sequence": "GUCACGAAUGUAGGAUAUCGAGUGGAUAACACUCGAGAAGGACAUGAGGAUCACCCAUGUCAAAUGAAAGAUAAUAAACGUGAC [Exclsuion NG 1/3-B2]", "values": [{"measurement": "apparent KD of MS2 coat protein", "setting": "[2]; input ligand: FMN 200 uM", "result": 20.6, "unit": "nM"}, {"measurement": "apparent KD of MS2 coat protein", "setting": "[2]; input ligand: none", "result": 15.8, "unit": "nM"}]}, {"sequence": "GUCCCUACAUGAGGAUCACCCAUGUGGGCAGUAAGAAGCCCACAGGAUAUGCGAAGGAGGACAUAGCAGAAGGGUGGUGUUUAG [Reaninveri] (puzzle (switch architecture): Same State NG 3)", "values": [{"measurement": "apparent KD of MS2 coat protein", "setting": "[1]; input ligand: FMN 200 uM", "result": 138, "unit": "nM"}, {"measurement": "apparent KD of MS2 coat protein", "setting": "[1]; input ligand: none", "result": 625, "unit": "nM"}]}, {"sequence": "GUCCCUACAUGAGGAUCACCCAUGUGGGCGGUAAGGAGCCCACAGGAUAUGCGAAGGAGGACAUAGCAGAAGGGUGGUGUUCAG [Erenerbe] (puzzle (switch architecture): Same State NG 3)", "values": [{"measurement": "apparent KD of MS2 coat protein", "setting": "[1]; input ligand: FMN 200 uM", "result": 33.5, "unit": "nM"}, {"measurement": "apparent KD of MS2 coat protein", "setting": "[1]; input ligand: none", "result": 308, "unit": "nM"}]}, {"sequence": "GUUAUCUCAUGUUCGACGGACAUGAGGAUCACCCAUGUACCUUAGGAUAUUGAUGAAAUAUGGCGCAAGAAGGAAGGUAACGCU [EternaBot964] (puzzle (switch architecture): Exclusion NG 3)", "values": [{"measurement": "apparent KD of MS2 coat protein", "setting": "[1]; input ligand: FMN 200 uM", "result": 7.51, "unit": "nM"}]}, {"sequence": "UAUAUAUAGGCAGGAUAUACAUGUAUAUAUAAUUUAUUAUAUAUUAUUACAUGAGGAUCACCCAUGUAGAAGGGCCAUAUUAUA [LRO037_Exclusion NG 2]", "values": [{"measurement": "apparent KD of MS2 coat protein", "setting": "[2]; input ligand: FMN 200 uM", "result": 51.2, "unit": "nM"}, {"measurement": "apparent KD of MS2 coat protein", "setting": "[2]; input ligand: none", "result": 30.1, "unit": "nM"}]}, {"sequence": "UUACGUCCCGUUUACAUGAGGAUCACCCAUGUCGAAAGAACCGAGGAUAUGCUACCUAGUUGGUAGCAGAAGGCGGAAACGUCG [salish99_SSNG3_r02_008]", "values": [{"measurement": "apparent KD of MS2 coat protein", "setting": "[3]; input ligand: FMN 200 uM", "result": 42.3, "unit": "nM"}, {"measurement": "apparent KD of MS2 coat protein", "setting": "[3]; input ligand: none", "result": 25.9, "unit": "nM"}]}, {"sequence": "UUGCUCAAUUGGGCAGGGACCUCACAUGAGGAUCACCCAUGUCAGGAUAUCCUAGUUUGGACGUAGGAGAAGGGACGGAGUAUC [Usanat]", "values": [{"measurement": "apparent KD of MS2 coat protein", "setting": "[2]; input ligand: FMN 200 uM", "result": 250, "unit": "nM"}, {"measurement": "apparent KD of MS2 coat protein", "setting": "[2]; input ligand: none", "result": 167, "unit": "nM"}]}]}
